Key:
Assay in all cases: ELISA, immobilised recombinant L7/L12 (10 ng/mL), antibody 10 ug/mL
[1] = target: T1, 肺炎球菌(SP)のリボソームタンパク質L7/L12 (肺炎球菌 (Streptococcus pneumoniae))
T1 construct: also called Streptococcus pneumoniae ribosomal protein L7/L12; SP L7/L12

[2] = target: T2, 髄膜炎菌(NM)のリボソームタンパク質L7/L12 (髄膜炎菌 (Neisseria meningitidis))
T2 construct: also called Neisseria meningitidis ribosomal protein L7/L12; NM L7/L12

[3] = target: T3, インフルエンザ菌(HI)のリボソームタンパク質L7/L12 (インフルエンザ菌 (Haemophilus influenzae))
T3 construct: also called Haemophilus influenzae ribosomal protein L7/L12; HI L7/L12

[4] = target: T4, クレブシエラ・ニューモニエ(KP)のリボソームタンパク質L7/L12 (クレブシエラ・ニューモニエ (Klebsiella pneumoniae))
T4 construct: also called 肺炎桿菌; Klebsiella pneumoniae ribosomal protein L7/L12

[5] = target: T5, モラキセラ菌(MC)のリボソームタンパク質L7/L12 (モラキセラ菌 (Moraxella catarrhalis))
T5 construct: also called Moraxella catarrhalis ribosomal protein L7/L12; MC L7/L12

[6] = target: T6, リステリア・モノサイトゲネス(LM)のリボソームタンパク質L7/L12 (リステリア・モノサイトゲネス (Listeria monocytogenes))
T6 construct: also called Listeria monocytogenes ribosomal protein L7/L12; LM L7/L12

[7] = target: T7, 黄色ブドウ球菌(SA)のリボソームタンパク質L7/L12 (黄色ブドウ球菌 (Staphylococcus aureus))
T7 construct: also called Staphylococcus aureus ribosomal protein L7/L12; SA L7/L12

[8] = target: T8, サルモネラ菌(SE)のリボソームタンパク質L7/L12 (サルモネラ菌 (Salmonella enteritidis))
T8 construct: also called Salmonella enteritidis ribosomal protein L7/L12; SE L7/L12

[9] = target: T9, 溶連菌(SPY)のリボソームタンパク質L7/L12 (溶連菌 (Streptococcus pyogenes))
T9 construct: also called Streptococcus pyogenes ribosomal protein L7/L12; SPY L7/L12

[10] = target: T10, クラミジア・トラコマチス(CT)のリボソームタンパク質L7/L12 (クラミジア・トラコマチス (Chlamydia trachomatis))
T10 construct: also called Chlamydia trachomatis ribosomal protein L7/L12; CT L7/L12

[11] = target: T11, 緑膿菌(PA)のリボソームタンパク質L7/L12 (緑膿菌 (Pseudomonas aeruginosa))
T11 construct: also called Pseudomonas aeruginosa ribosomal protein L7/L12; PA L7/L12

[12] = target: T12, 肺炎マイコプラズマ(MP)のリボソームタンパク質L7/L12 (肺炎マイコプラズマ (Mycoplasma pneumoniae))
T12 construct: also called Mycoplasma pneumoniae ribosomal protein L7/L12; MP L7/L12

[13] = target: T13, カンピロバクター・ジェジュニ(CJ)のリボソームタンパク質L7/L12 (カンピロバクター・ジェジュニ (Campylobacter jejuni))
T13 construct: also called Campylobacter jejuni ribosomal protein L7/L12; CJ L7/L12

[14] = target: T14, 淋菌(NG)のリボソームタンパク質L7/L12 (淋菌 (Neisseria gonorrhoeae))
T14 construct: also called Neisseria gonorrhoeae ribosomal protein L7/L12; NG L7/L12

[15] = target: T15, 肺炎クラミジア(CP)のリボソームタンパク質L7/L12 (肺炎クラミジア (Chlamydia pneumoniae))
T15 construct: also called Chlamydia pneumoniae ribosomal protein L7/L12; CP L7/L12

[16] = target: T16, 百日咳菌(BP)のリボソームタンパク質L7/L12 (百日咳菌 (Bordetella pertussis))
T16 construct: also called Bordetella pertussis ribosomal protein L7/L12; BP L7/L12

Measured: absorbance at 450 nm

B1: 汎用性抗体A(PA51B2) (antibody, V domains shown)
VH: QVQLQQPGSVLVRPGASVKLSCKPSGYTFTGSWMHWTKQRPGQGLEWIGEIHPYSGNTNYNEKFRVKATLTVDTSSSTTYVDLSSLTSDDSAVYYCASGDFDAGFTYWGQGTLVTVSA
VL: DIVLTQSPASLAVSLGRRATISCKASQSVDYDGDSYMNWYQQKPGQPPKLLIYVASNLESGIPARFSGSGSGTDFTLNIHPVEEEDAATYYCQQTNEDPFTFGAGTKLELK
notes: also called PA51B2; general-purpose antibody A
≥ 0.3 absorbance (450 nm): all assays above

B2: 汎用性抗体C(CP141A190.1) (antibody, V domains shown)
VH: QVQLQQPGAELVKPGASVKLSCKTSGYNFTSNWIHWVKQRPGQGLEWIGEINPSNGRANYNEKFKNKATLTVDKSSSTAFMHLSSLTSEDSAVYFCSRGDFDEGFTYWGQGTLVTVSA
VL: QIVLTQSPAIMSASLGERVTMTCTASSNVNSDYLHWYQQKPGSSPRLWIYTTSNLASGVPTRFSGNGSGTSYSLTISSMEAEDAATYYCHQYHRSPRTFGGGTKLEIK
notes: also called CP141A190.1; general-purpose antibody C
≥ 0.3 absorbance (450 nm): all assays above

Source: patent JP2022109630A (dated 2022)
